The text below walks through data of the supplement of paper PMC12455559.

The nature of data set [1]: PET hydrolysis, aromatic products released after 48 h (umol product/mg enzyme); higher = more PET depolymerization activity. Summed up: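 Candidate enzymes, made tagless by SUMO cleavage and purified on nickel beads, were added at 5 μg (50 μL) to 3.5 mg of either amorphous PET film or crystalline PET powder in 450 μL buffer. The sealed plates stood unshaken for 48 h at 40 or 60 °C. Activity on PET is the aromatic product found in the supernatant per mg enzyme, read at 260 and 280 nm against buffer blanks.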

Data set [2] is described as follows: melting temperature (DSF); higher = more thermostable. The method in brief: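 Values are melting temperatures from differential scanning fluorimetry. Candidate enzymes were expressed in E. coli C41(DE3), purified on nickel beads and freed by SUMO protease cleavage. In sealed PCR plates on a Bio-Rad CFX96, 45 μL enzyme (0 to 0.3 mg/mL) was combined with 5 μL 5X Sypro Orange. Fluorescence was recorded from 25 °C for 250 cycles, rising 0.3 °C per cycle at a ramp of 0.3 °C/s.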

A short description of data set [3]: purified protein yield per well (BCA); higher = higher soluble expression. The method in brief:
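Expression was done in E. coli C41(DE3), using 2 mL autoinduction cultures with 100 µg/mL kanamycin incubated at 37 °C for 2 h and at 18 °C for 40 h. Protein was purified on Ni-charged magnetic beads and released by SUMO protease cleavage. Yield of purified protein per well was measured with the Pierce Rapid Gold BCA kit; values below 25 ug (0.1 mg/mL) are below detection.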

The mark [4] stands for this setting: substrate: aFilm, 40 °C, pH 4.5.
Where [5] appears, read: substrate: aFilm, 40 °C, pH 5.5.
Setting [6] is: substrate: aFilm, 40 °C, pH 6.5.
Setting [7] is: substrate: aFilm, 40 °C, pH 7.5.
[8] abbreviates: substrate: aFilm, 60 °C, pH 4.5.
[9] abbreviates: substrate: aFilm, 60 °C, pH 5.5.
Where [10] appears, read: substrate: aFilm, 60 °C, pH 6.5.
[11] abbreviates: substrate: aFilm, 60 °C, pH 7.5.
Where [12] appears, read: substrate: cryPow, 40 °C, pH 4.5.
The mark [13] stands for this setting: substrate: cryPow, 40 °C, pH 5.5.
The mark [14] stands for this setting: substrate: cryPow, 40 °C, pH 6.5.
Setting [15] is: substrate: cryPow, 40 °C, pH 7.5.
The mark [16] stands for this setting: substrate: cryPow, 60 °C, pH 4.5.
[17] abbreviates: substrate: cryPow, 60 °C, pH 5.5.
Setting [18] is: substrate: cryPow, 60 °C, pH 6.5.
The mark [19] stands for this setting: substrate: cryPow, 60 °C, pH 7.5.

± gives the standard deviation of the averaged measurements. Some results are limits rather than exact numbers.

Regarding “ADNPYQRGPDPTRASVASENGPFANTSVAVPTGYGFNGGRIYYPTDTSQGTFGAIAISPGYTALFSVELAWMGPWLASHGFVVIGIETNSRNDFDTARGTQLLAALDYLTQQSPVRDRVDSSRLAVAGHSMGGGGALSAAMRRSSLKAAVGIAPYSPSSNLATDRVPTMVFSGQADTVVTPSYATGLYNSLPSTTESAYLEVAGADHGFMVGRSNPVLIRTMLPFLKIFIDNDARYSQFLCPLLDTSGVVTYRSTCPLLPTPPTSPTATPTTTPTGPSPTSPPGAASQLVGAQSGRCVDVPNASRANGTRVQLWDCNRQSNQSWTYTSTKQLRVYGDMCLDAAGTGNGAAVQIYGCHGQANQQWNVNSNGTVSNVQSGRCLDVWSTANGAQIQLYDCHGQTNQRFNLTPLA [TEP111]”, the PET hydrolysis in data set [1] (setting [4]), in data set [1] (setting [5]), in data set [1] (setting [6]), in data set [1] (setting [7]), in data set [1] (setting [8]) and in data set [1] (setting [9]) was under 3 each time. The PET hydrolysis was under 3 in data set [1] (setting [10]); under 3 in data set [1] (setting [11]); 13 ± 1.4 in data set [1] (setting [12]); 17 in data set [1] (setting [13]); 15.5 ± 9.2 in data set [1] (setting [14]); 8.5 ± 12 in data set [1] (setting [15]). Moreover, the PET hydrolysis in data set [1] (setting [16]) was under 3; in data set [1] (setting [17]), 5; in data set [1] (setting [18]) it was 4.5 ± 0.71; in data set [1] (setting [19]), under 3. This sequence also had a melting temperature in data set [2] of 63.1 C. Moreover, the “purified protein yield per well” value in data set [3] is 245 µg.

In the case of “ADNPYQRGPDPTRNSVAAENGPFANTSVSVPSGNGFNGGRIYYPTDTSQGTFGAIAISPGYTALFSAELAWMGPWLASHGFVVIGIETNSRNDFDTARGTQLLAALDYLTQQSTVRNRVDPNRLAVAGHSMGGGGALSAAMRRPSLKAVAGITPYSPSSNLANDRVPTMIISGQADTVVTPSYALGLYNSIPATTESVYLEVAGGDHGFMVGRSNPVLIRTMLPFLKTFVDNDARYTQFLCPLVDNSGVVTYRNTCPLLPPPTGTPTPTPTTPGPTTPPPTTPPPGSASEIVGTQSGRCVDVPNSSRTNGTRVQLYDCNRQTNQTWTYNTSTKQLRVYGDMCLDAAGTGNSAAVQIYACHSQTNQQWNINTNGTISGVQSGRCLDAWNTTNGAQIQLYDCHGQTNQQFRLAAR [TEP115]”, the PET hydrolysis in data set [1] (setting [12]) was 4; in data set [1] (setting [13]) it was 8; in data set [1] (setting [14]) it was 7; in data set [1] (setting [15]) it was 3; in data set [1] (setting [16]), under 3; in data set [1] (setting [17]), under 3. In addition, the PET hydrolysis in data set [1] (setting [18]) and in data set [1] (setting [19]) was under 3 each time. The melting temperature in data set [2] turned out to be 60.4 C. The “purified protein yield per well” value in data set [3] was determined as 113 µg.

As to “ADNPYQRGPDPTRSSVAAVNGPFANTSVAVPTGYGFNGGRIYYPTDTSQGTFGAIAISPGYTALFSVELAWMGPWLASHGFVVIGIETNSRNDFDTARGTQLLAALDYLTQQSPVRDRVDPNRLAVSGHSMGGGGALSAAIRRSSLKAVVGIAPYSPSSNLANDRVPTMVFAGQADTVVTPSYATGLYNSLPATTESAYLEVAGADHGFMVGRSNPVLIRTMLPFLKMFVDNDARYSQFLCPLADNSGVVSYRSTCPLLPTTPTTPPPTPSDTPPPTPSGTPTTPPTTGPPGTASLVVGAQSGRCLDVPNASRANGTRVQLWDCNRQANQQWTYTSTRQLRVYGDMCLDAAGSGNGAAVQIYGCHGQPNQQWTVNANGTISGVQSGRCLDVWSTANGAQVQLYDCHGQTNQRFTLTPVA [ESM080]”, the PET hydrolysis in data set [1] (setting [12]) was 9; in data set [1] (setting [13]), 18; in data set [1] (setting [14]), 9; in data set [1] (setting [15]) it was 4. In data set [2], this sequence had a melting temperature of 61.6 C. Also, the “purified protein yield per well” value in data set [3] worked out at 56.6 µg.

Regarding “ADNPYQRGPDPTRSSVAAVNGPFANTSVAVPTGYGFNGGRIYYPTDTSQGTFGAVAISPGYTALFSVELAWMGPWLASHGFVVIGIETNSRNDFDTARGTQLLAALDYLVQQSPVRDRIDPNRLAVSGHSMGGGGALSAALRRPALKAAVGIAPYSPSSNLANDRVPTMVFAGQADTVVTPSYATGLYNSLPTTTESAYLEVAGADHGFMVGRSNPVLIRTMLPFLKMFVDNDARYSQFLCPLADNSGVVSYRSTCPLLPPTSTTPPPIPSDTPPPIPTTPPQTTPPPSNPPGAASLIVGAQSNRCLDVPNASRANGTRVQLWDCNRGTNQSWTYTTNKQLRVYGDMCLDAAGSGNGAAVQIYGCHSQTNQQWNVNANGTISSVQSGRCLDVWSTANGAQVQLYDCHGQTNQRFTLTPLT [ESM101]”, the PET hydrolysis is 7 in data set [1] (setting [12]); 19 in data set [1] (setting [13]); 8 in data set [1] (setting [14]); 4 in data set [1] (setting [15]); under 3 in data set [1] (setting [16]); under 3 in data set [1] (setting [17]). Also, the PET hydrolysis in data set [1] (setting [18]) and in data set [1] (setting [19]) was under 3 throughout. In data set [2], this sequence showed a melting temperature of 58.6 C. For the same sequence, the “purified protein yield per well” value in data set [3] came to 149 µg.

On to “ADNPYQRGPDPTRTSVAAVNGPFANTSVSVPTGYGFNGGRIYYPTDTSQGTFGAIAISPGYTALFSAELAWMGPWLASHGFVVIGIETNSRNDFDTARGTQLLAALDYLTQQSPVRDRVDPNRLAVSGHSMGGGGALSAAIRRSSLKAVVGIAPYSPSSNLANDRVPTMIFSGQADTVVTPSYATGLYNSLPATTESVYLEVAGADHGFMVGRSNPVMIRTMLPFVKMFIDNDTRYSQFLCPLLDSSGVVTYRSTCPLLPPAPTTPPPTGTPTPTPSSNPTTPPTTPPSTPTA [ESM061]”, for which the PET hydrolysis in data set [1] (setting [4]), in data set [1] (setting [5]), in data set [1] (setting [6]), in data set [1] (setting [7]), in data set [1] (setting [8]) and in data set [1] (setting [9]) was under 3 in each case. In addition, the PET hydrolysis in data set [1] (setting [10]) was under 3; in data set [1] (setting [11]), under 3; in data set [1] (setting [12]), 11 ± 2.8; in data set [1] (setting [13]), 23 ± 1.4; in data set [1] (setting [14]) it was 5; in data set [1] (setting [15]), under 3. Moreover, the PET hydrolysis in data set [1] (setting [16]), in data set [1] (setting [17]), in data set [1] (setting [18]) and in data set [1] (setting [19]) was under 3 each time. This sequence also showed a melting temperature in data set [2] of 62.8 C. The “purified protein yield per well” value in data set [3] amounted to 408 µg.
